Laboratory results reported in publication PMC5579567.

How the values were obtained:
[1] = target: SgcE10, chymotrypsin digested (crystallised form) (Streptomyces globisporus); experiment: crystal structure
[2] = target: SgcE10, thioesterase (TE) of the 9-membered enediyne C-1027 biosynthetic machinery (Streptomyces globisporus); experiment: SEC

| stoichiometry N [1] | stoichiometry N [2] | Substance |
| --- | --- | --- |
| 4 | – | SgcE10, chymotrypsin digested (crystallised form) (enzyme) |
| – | 4 | SgcE10, thioesterase (TE) of the 9-membered enediyne C-1027 biosynthetic machinery (enzyme) |
